From publication PMC8472933

Assays:
[1] = molecular target: Menangle virus P protein C-terminal region, P209-388 (coiled-coil, linker and binding domain) (Menangle virus); assay: SEC-MALLS
[2] = molecular target: Menangle virus P protein C-terminal region, P209-388 (coiled-coil, linker and binding domain) (Menangle virus); assay: AUC

Menangle virus P protein C-terminal region, P209-388 (coiled-coil, linker and binding domain) (domain or fragment)
stoichiometry N [1]: 4
Kd [2]: 0.058 µM
stoichiometry N [2]: 4
